Assay results reported in the supplement of paper PMC10567573.

B1: MLL5 (parent)
chain: DCMGIDRQHIPDTYLCERCQPRNL

Variants of: B1
Experiment: protein stability index of a GFP-peptide fusion (GPS, HEK-293T) (PSI 1-6); higher = more stable
Settings: c terminus: a fixed tail appended
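Note: lentivirally expressed fusions sorted by FACS into six bins by GFP to DsRed ratio, PSI derived from sequencing read proportions per bin multiplied by bin number.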

Variant	protein stability index
DCMGIDRQHIPDTYLCELCQPRNL [R18L]	2.84
DCMGIDRQHIPDTYLCEFCQPRNL [R18F]	2.87
DCMGIDRQHIPDTYLCEICQPRNL [R18I]	2.9
DCMGIDRQHIPDTYLCEKCQPRNL [R18K]	2.63
DCMGIDRQHIPDTYLCEDCQPRNL [R18D]	3.81
DCMGIDRQHIPDTYLCEQCQPRNL [R18Q]	3.01
DCMGIDRQHIPDTYLCEWCQPRNL [R18W]	2.25
DCMGIDRQHIPDTYLCEECQPRNL [R18E]	3.15
DCMGIDRQHIPDTYLCEMCQPRNL [R18M]	2.74
DCMGIDRQHIPDTYLCECCQPRNL [R18C]	2.89
DCMGIDRQHIPDTYLCENCQPRNL [R18N]	3.58
DCMGIDRQHIPDTYLCEPCQPRNL [R18P]	3.15
DCMGIDRQHIPDTYLCEHCQPRNL [R18H]	3.18
DCMGIDRQHIPDTYLCEVCQPRNL [R18V]	2.19
DCMGIDRQHIPDTYLCETCQPRNL [R18T]	3.15
DCMGIDRQHIPDTYLCEACQPRNL [R18A]	2.57
DCMGIDRQHIPDTYLCEGCQPRNL [R18G]	3.6
DCMGIDRQHIPDTYLCEYCQPRNL [R18Y]	2.23
DCMGIDRQHIPDTYLCESCQPRNL [R18S]	3.12
DCMGIDRQHINDTYLCERCQPRNL [P11N]	4.19
DCMGIDRQHIHDTYLCERCQPRNL [P11H]	3.71
DCMGIDRQHITDTYLCERCQPRNL [P11T]	3.08
DCMGIDRQHIRDTYLCERCQPRNL [P11R]	3.15
DCMGIDRQHIGDTYLCERCQPRNL [P11G]	2.96

Variant	protein stability index
DCMGIDRQHIVDTYLCERCQPRNL [P11V]	2.73
DCMGIDRQHIQDTYLCERCQPRNL [P11Q]	2.69
DCMGIDRQHIFDTYLCERCQPRNL [P11F]	2.59
DCMGIDRQHIMDTYLCERCQPRNL [P11M]	2.82
DCMGIDRQHIWDTYLCERCQPRNL [P11W]	1.7
DCMGIDRQHIKDTYLCERCQPRNL [P11K]	2.62
DCMGIDRQHILDTYLCERCQPRNL [P11L]	2.23
DCMGIDRQHISDTYLCERCQPRNL [P11S]	2.23
DCMGIDRQHIIDTYLCERCQPRNL [P11I]	2.36
DCMGIDRQHIYDTYLCERCQPRNL [P11Y]	2.44
DCMGIDRQHIEDTYLCERCQPRNL [P11E]	3.43
DCMGIDRQHIDDTYLCERCQPRNL [P11D]	2.61
DCMGIDRQHIPATYLCERCQPRNL [D12A]	2.01
DCMGIDRQHIPVTYLCERCQPRNL [D12V]	1.69
DCMGIDRQHIPMTYLCERCQPRNL [D12M]	3.1
DCMGIDRQHIPSTYLCERCQPRNL [D12S]	2.38
DCMGIDRQHIPITYLCERCQPRNL [D12I]	2.51
DCMGIDRQHIPETYLCERCQPRNL [D12E]	2.81
DCMGIDRQHIPYTYLCERCQPRNL [D12Y]	2.1
DCMGIDRQHIPGTYLCERCQPRNL [D12G]	2.63
DCMGIDRQHIPHTYLCERCQPRNL [D12H]	2.48
DCMGIDRQHIPCTYLCERCQPRNL [D12C]	2.67
DCMGIDRQHIPFTYLCERCQPRNL [D12F]	2.64
DCMGIDRQHIPKTYLCERCQPRNL [D12K]	1.96

Variant	protein stability index
DCMGIDRQHIPNTYLCERCQPRNL [D12N]	2.38
DCMGIDRQHIPPTYLCERCQPRNL [D12P]	3.19
DCMGIDRQHIPTTYLCERCQPRNL [D12T]	2.81
DCMGIDRQHIPLTYLCERCQPRNL [D12L]	1.93
DCMGIDRQHIPQTYLCERCQPRNL [D12Q]	2.67
DCMGIDRQHIPRTYLCERCQPRNL [D12R]	2.86
DCMGIDRQHIPDAYLCERCQPRNL [T13A]	3.59
DCMGIDRQHIPDSYLCERCQPRNL [T13S]	3.66
DCMGIDRQHIPDWYLCERCQPRNL [T13W]	2.7
DCMGIDRQHIPDNYLCERCQPRNL [T13N]	2.91
DCMGIDRQHIPDPYLCERCQPRNL [T13P]	3.33
DCMGIDRQHIPDGYLCERCQPRNL [T13G]	3.31
DCMGIDRQHIPDKYLCERCQPRNL [T13K]	3.24
DCMGIDRQHIPDQYLCERCQPRNL [T13Q]	3.07
DCMGIDRQHIPDYYLCERCQPRNL [T13Y]	2.15
DCMGIDRQHIPDFYLCERCQPRNL [T13F]	2.55
DCMGIDRQHIPDHYLCERCQPRNL [T13H]	3.36
DCMGIDRQHIPDVYLCERCQPRNL [T13V]	3.34
DCMGIDRQHIPDCYLCERCQPRNL [T13C]	2.17
DCMGIDRQHIPDIYLCERCQPRNL [T13I]	2.26
DCMGIDRQHIPDRYLCERCQPRNL [T13R]	3.63
DCMGIDRQHIPDLYLCERCQPRNL [T13L]	2.04
DCMGIDRQHIPDDYLCERCQPRNL [T13D]	3.54
DCMGIDRQHIPDEYLCERCQPRNL [T13E]	3.71

Variant	protein stability index
DCMGIDRQHIPDMYLCERCQPRNL [T13M]	2.89
DCMGIDRQHIPDTYLCSRCQPRNL [E17S]	2.64
DCMGIDRQHIPDTYLCPRCQPRNL [E17P]	2.96
DCMGIDRQHIPDTYLCDRCQPRNL [E17D]	3.21
DCMGIDRQHIPDTYLCWRCQPRNL [E17W]	2.02
DCMGIDRQHIPDTYLCARCQPRNL [E17A]	2.89
DCMGIDRQHIPDTYLCHRCQPRNL [E17H]	2.68
DCMGIDRQHIPDTYLCNRCQPRNL [E17N]	3.35
DCMGIDRQHIPDTYLCRRCQPRNL [E17R]	2.47
DCMGIDRQHIPDTYLCLRCQPRNL [E17L]	2.96
DCMGIDRQHIPDTYLCQRCQPRNL [E17Q]	3.04
DCMGIDRQHIPDTYLCIRCQPRNL [E17I]	1.94
DCMGIDRQHIPDTYLCFRCQPRNL [E17F]	2.25
DCMGIDRQHIPDTYLCKRCQPRNL [E17K]	2.6
DCMGIDRQHIPDTYLCYRCQPRNL [E17Y]	2.5
DCMGIDRQHIPDTYLCMRCQPRNL [E17M]	2.28
DCMGIDRQHIPDTYLCTRCQPRNL [E17T]	3.07
DCMGIDRQHIPDTYLCVRCQPRNL [E17V]	1.71
DCMGIDRQHIPDTYLCCRCQPRNL [E17C]	2.32
DCMGIDRQHIPDTYLCGRCQPRNL [E17G]	2.39
DCMGIDRQHIPDTYLYERCQPRNL [C16Y]	2.88
DCMGIDRQHIPDTYLGERCQPRNL [C16G]	4.23
DCMGIDRQHIPDTYLTERCQPRNL [C16T]	3.41
DCMGIDRQHIPDTYLNERCQPRNL [C16N]	3.7

Variant	protein stability index
DCMGIDRQHIPDTYLWERCQPRNL [C16W]	2.9
DCMGIDRQHIPDTYLLERCQPRNL [C16L]	3.36
DCMGIDRQHIPDTYLFERCQPRNL [C16F]	3.13
DCMGIDRQHIPDTYLKERCQPRNL [C16K]	3.41
DCMGIDRQHIPDTYLEERCQPRNL [C16E]	3.65
DCMGIDRQHIPDTYLMERCQPRNL [C16M]	3.7
DCMGIDRQHIPDTYLDERCQPRNL [C16D]	3.91
DCMGIDRQHIPDTYLPERCQPRNL [C16P]	3.73
DCMGIDRQHIPDTYLQERCQPRNL [C16Q]	3.79
DCMGIDRQHIPDTYLIERCQPRNL [C16I]	3.44
DCMGIDRQHIPDTYLVERCQPRNL [C16V]	3.21
DCMGIDRQHIPDTYLSERCQPRNL [C16S]	3.52
DCMGIDRQHIPDTYLHERCQPRNL [C16H]	3.58
DCMGIDRQHIPDTYLRERCQPRNL [C16R]	3.67
DCMGIDRQHIPDTYLAERCQPRNL [C16A]	3.56
DCMGIDRQHIPDTYLCERCQCRNL [P21C]	3.21
DCMGIDRQHIPDTYLCERCQARNL [P21A]	3.58
DCMGIDRQHIPDTYLCERAQPRNL [C19A]	4.26
DCMGIDRQHIPDTYLCERGQPRNL [C19G]	3.63
DCMGIDRQHIPDTYLCERVQPRNL [C19V]	2.65
DCMGIDRQHIPDTYLCERSQPRNL [C19S]	3.85
DCMGIDRQHIPDTYLCERNQPRNL [C19N]	4.06
DCMGIDRQHIPDTYLCERFQPRNL [C19F]	3.14
DCMGIDRQHIPDTYLCERDQPRNL [C19D]	4.73

Variant	protein stability index
DCMGIDRQHIPDTYLCEREQPRNL [C19E]	4.12
DCMGIDRQHIPDTYLCERYQPRNL [C19Y]	2.8
DCMGIDRQHIPDTYLCERTQPRNL [C19T]	4.09
DCMGIDRQHIPDTYLCERIQPRNL [C19I]	3.02
DCMGIDRQHIPDTYLCERWQPRNL [C19W]	2.63
DCMGIDRQHIPDTYLCERPQPRNL [C19P]	4.55
DCMGIDRQHIPDTYLCERKQPRNL [C19K]	3.67
DCMGIDRQHIPDTYLCERRQPRNL [C19R]	4.24
DCMGIDRQHIPDTYLCERLQPRNL [C19L]	3.43
DCMGIDRQHIPDTYLCERQQPRNL [C19Q]	3.88
DCMGIDRQHIPDTYLCERHQPRNL [C19H]	3.7
DCMGIDRQHIPDTYLCERMQPRNL [C19M]	1.98
DCMGIDRQHIPDTYSCERCQPRNL [L15S]	3.76
DCMGIDRQHIPDTYFCERCQPRNL [L15F]	2
DCMGIDRQHIPDTYACERCQPRNL [L15A]	3.61
DCMGIDRQHIPDTYGCERCQPRNL [L15G]	3.43
DCMGIDRQHIPDTYQCERCQPRNL [L15Q]	2.99
DCMGIDRQHIPDTYTCERCQPRNL [L15T]	3.73
DCMGIDRQHIPDTYWCERCQPRNL [L15W]	2.81
DCMGIDRQHIPDTYCCERCQPRNL [L15C]	3.71
DCMGIDRQHIPDTYYCERCQPRNL [L15Y]	2.28
DCMGIDRQHIPDTYMCERCQPRNL [L15M]	2.95
DCMGIDRQHIPDTYKCERCQPRNL [L15K]	4
DCMGIDRQHIPDTYDCERCQPRNL [L15D]	3.69

Variant	protein stability index
DCMGIDRQHIPDTYECERCQPRNL [L15E]	4.66
DCMGIDRQHIPDTYHCERCQPRNL [L15H]	3.32
DCMGIDRQHIPDTYNCERCQPRNL [L15N]	3.8
DCMGIDRQHIPDTYRCERCQPRNL [L15R]	3.61
DCMGIDRQHIPDTYVCERCQPRNL [L15V]	3.28
DCMGIDRQHIPDTYICERCQPRNL [L15I]	3.61
DCMGIDRQHIPDTYPCERCQPRNL [L15P]	3.15
DCMGIDRQHIPDTYLCERCYPRNL [Q20Y]	2.94
DCMGIDRQHIPDTYLCERCNPRNL [Q20N]	3.33
DCMGIDRQHIPDTYLCERCDPRNL [Q20D]	4.22
DCMGIDRQHIPDTYLCERCWPRNL [Q20W]	2.27
DCMGIDRQHIPDTYLCERCMPRNL [Q20M]	3.26
DCMGIDRQHIPDTYLCERCTPRNL [Q20T]	3.53
DCMGIDRQHIPDTYLCERCKPRNL [Q20K]	2.68
DCMGIDRQHIPDTYLCERCEPRNL [Q20E]	3.21
DCMGIDRQHIPDTYLCERCGPRNL [Q20G]	2.79
DCMGIDRQHIPDTYLCERCAPRNL [Q20A]	2.81
DCMGIDRQHIPDTYLCERCIPRNL [Q20I]	2.55
DCMGIDRQHIPDTYLCERCFPRNL [Q20F]	2.37
DCMGIDRQHIPDTYLCERCHPRNL [Q20H]	2.8
DCMGIDRQHIPDTYLCERCVPRNL [Q20V]	2.79
DCMGIDRQHIPDTYLCERCSPRNL [Q20S]	3.03
DCMGIDRQHIPDTYLCERCPPRNL [Q20P]	3.24
DCMGIDRQHIPDTYLCERCCPRNL [Q20C]	2.69

Variant	protein stability index
DCMGIDRQHIPDTYLCERCLPRNL [Q20L]	1.99
DCMGIDRQHIPDTDLCERCQPRNL [Y14D]	3.83
DCMGIDRQHIPDTCLCERCQPRNL [Y14C]	4.74
DCMGIDRQHIPDTSLCERCQPRNL [Y14S]	3.32
DCMGIDRQHIPDTTLCERCQPRNL [Y14T]	3.73
DCMGIDRQHIPDTRLCERCQPRNL [Y14R]	3.88
DCMGIDRQHIPDTNLCERCQPRNL [Y14N]	3.15
DCMGIDRQHIPDTMLCERCQPRNL [Y14M]	3.5
DCMGIDRQHIPDTILCERCQPRNL [Y14I]	3.21
DCMGIDRQHIPDTKLCERCQPRNL [Y14K]	3.11
DCMGIDRQHIPDTWLCERCQPRNL [Y14W]	3.26
DCMGIDRQHIPDTGLCERCQPRNL [Y14G]	3.35
DCMGIDRQHIPDTVLCERCQPRNL [Y14V]	3.43
DCMGIDRQHIPDTQLCERCQPRNL [Y14Q]	3.7
DCMGIDRQHIPDTPLCERCQPRNL [Y14P]	3.71
DCMGIDRQHIPDTFLCERCQPRNL [Y14F]	2.89
DCMGIDRQHIPDTHLCERCQPRNL [Y14H]	4.12
DCMGIDRQHIPDTALCERCQPRNL [Y14A]	3.85
DCMGIDRQHIPDTELCERCQPRNL [Y14E]	4.21
DCMGIDRQHIPDTLLCERCQPRNL [Y14L]	2.56
